Measured values from patent US20240294614A1 (ACADEMY OF MILITARY MEDICAL SCIENCE PLA, published 2024).
Read-outs that look alike come from different tables or passages of the source.

Legend:
[1] = target: Nipah virus Bangladesh strain glycoprotein G (Nipah virus, Bangladesh strain (NiV-BD)); assay: cell-based or functional assay
[2] = target: T1, Nipah virus Malaysia strain glycoprotein G (Nipah virus, Malaysia strain (NiV-MY), UniProt Q9IH62 71-602); assay: cell-based or functional assay
T1 sequence: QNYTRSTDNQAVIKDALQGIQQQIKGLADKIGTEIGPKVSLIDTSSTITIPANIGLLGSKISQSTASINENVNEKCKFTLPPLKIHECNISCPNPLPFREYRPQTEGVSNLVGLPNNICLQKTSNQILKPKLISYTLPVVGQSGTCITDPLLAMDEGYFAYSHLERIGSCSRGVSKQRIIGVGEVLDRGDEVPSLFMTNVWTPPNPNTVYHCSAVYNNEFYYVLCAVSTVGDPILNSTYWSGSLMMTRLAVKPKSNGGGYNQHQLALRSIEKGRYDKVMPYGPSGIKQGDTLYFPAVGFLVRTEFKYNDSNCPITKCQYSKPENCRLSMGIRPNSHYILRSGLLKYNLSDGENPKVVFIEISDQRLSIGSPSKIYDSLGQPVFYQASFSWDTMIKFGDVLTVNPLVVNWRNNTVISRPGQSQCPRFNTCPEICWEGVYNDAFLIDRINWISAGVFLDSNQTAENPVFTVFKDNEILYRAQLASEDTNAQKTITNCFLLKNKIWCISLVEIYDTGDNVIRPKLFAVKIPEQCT

[3] = target: T2, Hendra virus glycoprotein G (Hendra virus (HeV), UniProt O89343 71-604); assay: cell-based or functional assay
T2 sequence: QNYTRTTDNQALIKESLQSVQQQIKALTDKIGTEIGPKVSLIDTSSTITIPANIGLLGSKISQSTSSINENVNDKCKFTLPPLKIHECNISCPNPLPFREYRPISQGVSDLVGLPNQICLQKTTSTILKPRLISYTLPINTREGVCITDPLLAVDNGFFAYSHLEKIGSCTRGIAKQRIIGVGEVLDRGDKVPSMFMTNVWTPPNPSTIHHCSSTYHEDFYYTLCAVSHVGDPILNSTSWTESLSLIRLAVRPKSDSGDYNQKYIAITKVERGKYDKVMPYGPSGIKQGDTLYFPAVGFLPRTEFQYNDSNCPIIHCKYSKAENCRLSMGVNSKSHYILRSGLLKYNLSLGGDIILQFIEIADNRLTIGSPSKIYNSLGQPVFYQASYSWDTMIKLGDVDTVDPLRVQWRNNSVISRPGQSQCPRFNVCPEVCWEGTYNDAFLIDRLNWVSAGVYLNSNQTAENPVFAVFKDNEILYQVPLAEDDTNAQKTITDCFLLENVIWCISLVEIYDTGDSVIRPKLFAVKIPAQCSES

[4] = target: Nipah virus Bangladesh strain glycoprotein G (Nipah virus, Bangladesh strain (NiV-BD)); assay: ELISA, G protein coated at 1 µg/mL, antibody 1:3 dilutions from 20 µg/mL
[5] = target: T1, Nipah virus Malaysia strain …; assay: as above
[6] = target: T2, Hendra virus glycoprotein G; assay: as above
[7] = target: Nipah virus Bangladesh strain glycoprotein G (Nipah virus, Bangladesh strain (NiV-BD))
[8] = target: Nipah virus Bangladesh strain glycoprotein G (Nipah virus, Bangladesh strain (NiV-BD)); remark: listed apart in the source
[9] = target: Nipah virus Bangladesh strain glycoprotein G (Nipah virus, Bangladesh strain (NiV-BD)); remark: listed apart in the source
[10] = target: T1, Nipah virus Malaysia strain …
[11] = target: T2, Hendra virus glycoprotein G
[12] = target: T1, Nipah virus Malaysia strain …; remark: listed apart in the source
[13] = target: T2, Hendra virus glycoprotein G; remark: listed apart in the source
[14] = target: T1, Nipah virus Malaysia strain …; remark: listed apart in the source

B1: 2A4 (antibody, V domains shown)
VH: QVQLQESGPGLVKPSETLSLTCPVSGASISSHWWTWIRQPPGKGLEWIGEIHGNSGSTNYNPSLKSRVTISKDASKNHFSLKLSSVTAADTAVYYCARDGHLGILVVFATSRFDVWGPGVLVTVSS
VL: DIQMTQSPSSLSASVGDTVTITCQASQGIANNLNWYQQKPGKAPKLLIYRASSLQSGIPSRFSGSGSGTDYTLTISSLQPEDFATYYCQQGYTYPRTFGQGTKVEIKT
With B1 the percent neutralisation of NiV-BD pseudovirus at 1 µg/mL [1] was 100%, the “percent neutralisation of NiV-MY pseudovirus at 1 µg/mL” value [2] was roughly 100% and the “IC50, neutralisation of HeV pseudovirus (HIV backbone, luciferase, 293T cells)” value (from here on “IC50, neutralisation of HeV pseudovirus”) [3] was 0.029 µg/mL. For the same binder, the “percent neutralisation of HeV pseudovirus at 1 µg/mL” value [3] was roughly 100%, the EC50 [4] was 0.0045 µg/mL and the EC50 [5] was 0.0112 µg/mL. It also gave an EC50 [6] of 0.00737 µg/mL.

B2: 2E7 (antibody, V domains shown)
VH: VQLQESGPGLVKPSETLSLTCSVSGGSISISNWWSWIRQSPGKGLEWIGYIYGSSGSTLYNPSLKSRVSISTDTSKNQFSLKLRSVTAADTAVYYCASPSIAATGDFDYWGQGVLVTVSS
VL: QSVLTQPPSASGAPGQSVTISCSGSSSNIGGNNVYWYQQLPGTAPKLLIYSSNQRPSGVPDRFSGSKSGTSASLAITGLRSEDEADYFCAVWDDSLGSPFFGGGTRLTVLR
notes: copies: 2 + 2
Work on B2 yielded an EC50 [5] of 0.0267 µg/mL and an EC50 [6] of 0.0701 µg/mL.

B3: 1E5 (antibody, V domains shown)
VH: VQLQESGPGVVKPSETLSLTCAVSGGSISDTYRWSWIRQPPGKGLEWIGYIYGSATSTYYNPSLSSRVTISKDMSKNQFSLNLNSVTAADTAVYYCARDYQYYYSGSYPTPHNWFDVWGPGVLVTVSS
VL: DIQMTQSPSSLSASVGDRVTITCRASQGIIDYLSWYQQKPGKAPKLLISTASNLESGVPSRFSGSGSGTEFTLTISSLQPEDFATYSCLQGYTTPYTFGQGTKVEIKT
With B3 the Kd [7] was 0.171 nM, the IC50 (read off the curve) [8] was 0.04 µg/mL and the IC50 (read off the curve) [9] was 0.06 µg/mL. The Kd [10] was less than 0.001 nM, the Kd [11] was 0.785 nM and the “IC50 (read off the curve)” value [12] was roughly 0.06 µg/mL. For the same binder, the “IC50 (read off the curve)” value [13] was roughly 0.2 µg/mL, the “IC50 (read off the curve)” value [14] was roughly 0.1 µg/mL and the percent neutralisation of NiV-BD pseudovirus at 1 µg/mL [1] was 100%. For the same binder, the “percent neutralisation of NiV-MY pseudovirus at 1 µg/mL” value [2] was roughly 100%, the “IC50, neutralisation of HeV pseudovirus” value [3] was 0.00574 µg/mL and the “percent neutralisation of HeV pseudovirus at 1 µg/mL” value [3] was roughly 100%. The EC50 [4] was 0.0026 µg/mL, the EC50 [5] was 0.00085 µg/mL and the EC50 [6] was 0.00034 µg/mL.

B4: 1B6 (antibody, V domains shown)
VH: VQLQESGPGPVKPSETLSLTCTVSGGSMSRGYDWNWIRQPPGKGLEWIGYIGDDGGRSNYNPSLKSRVTISKDSSKNQFSLKLGSVSAADTAVYYCARALRAIWYNSGWFYNSLDVWGRGVLVTVSS
VL: DIVLTQSPASLAVSPGQRATITCRASEGVSVFGRDLIHWYQQKPGQPPKLLIYQTSNRDTGVPARFSGSGSGTDFTLTINPVEADDAADYYCLQSKNSYSFGQGTKVEIKT
In the case of B4, the percent neutralisation of NiV-BD pseudovirus at 1 µg/mL [1] is reported as 100%, the “percent neutralisation of NiV-MY pseudovirus at 1 µg/mL” value [2] is reported as roughly 100% and the “IC50, neutralisation of HeV pseudovirus” value [3] is reported as 0.0163 µg/mL. For the same binder, the “percent neutralisation of HeV pseudovirus at 1 µg/mL” value [3] was roughly 100%, the EC50 [4] was 0.0284 µg/mL and the EC50 [5] was 0.0639 µg/mL. It also gave an EC50 [6] of 0.0529 µg/mL.
